Source: US20030054411A1, “GPR motifs and uses thereof” (priority 2001, published 2003)

B1: AGS3: Activator of G-protein Signalling 3; bioactive 74 amino acid fragment isolated in yeast screen, tested as GST fusion (protein)
chain: MLIKYQSSRIDDQRCPPPDVLPRGPTMPDEDFFSLIQRVQAKRMDEQRVDLAGSPDQEASGLPDPRQQCPPGAS
modifications: left off: a dimerising Fc or GST

What was measured:
[1] = tested on: pheromone response pathway; assay: β-galactosidase reporter assays in yeast strains expressing different Gα subunits; assay type: cell-based, Saccharomyces cerevisiae; details: Gpa1, Gsα, Giα2, Giα3, Gα16 backgrounds
Description: (A) Bioactivity of cDNA #37 and 53 in yeast strains expressing different Gα subunits. The Gpa1, Giα2Gpa1(1-41), Giα3Gpa1(1-41) and Gα16Gpa1(1-41) yeast strains expressed similar amounts of G-protein as determined by immunoblotting with Gpa1-specific antisera. Each series of experiments include data obtained in the absence of Gα to indicate the signal obtained when the action of Gβγ is not limited by reformation of heterotrimer. Data are presented as the mean±S.E.M of three experiments with duplicate determinations. (B) Interaction of AGS2 and AGS3 with G-proteins. AGS2 and the bioactive AGS3 peptide (74 amino acids) beginning at the first in frame methionine were generated as GST-fusion proteins in bacteria and purified using a glutathione affinity matrix. AGS2 and AGS3 GST fusion proteins were incubated with G-protein subunits (Gα=60-80 nM, Gβγ=40 nM, fusion protein=˜300 nM, total volume=250 ul) for 12 hrs at 4° C. GDP=10 uM. […] Giα2 was generated in Sf9 cells as an amino terminal his6-tagged protein and was detected on membrane transfers using anti-Xpress antisera (Invitrogen). Bovine brain Gβγ was detected on membrane transfers with Gβ antisera. […]
Generation and screening of cDNA libraries. […] The cDNAs conferring such a response were considered positive and were further evaluated by epistasis experiments in different yeast strains, nucleotide sequencing and RNA blot analysis. […]

Giα2 = target: T1, Giα2 (Homo sapiens, UniProt P04899); assay: GTPγS binding assay, Giα2; assay type: biochemical; details: AGS proteins
T1 construct: made in house; host or cells: Sf9 insect cells
T1 sequence (P04899 whole entry): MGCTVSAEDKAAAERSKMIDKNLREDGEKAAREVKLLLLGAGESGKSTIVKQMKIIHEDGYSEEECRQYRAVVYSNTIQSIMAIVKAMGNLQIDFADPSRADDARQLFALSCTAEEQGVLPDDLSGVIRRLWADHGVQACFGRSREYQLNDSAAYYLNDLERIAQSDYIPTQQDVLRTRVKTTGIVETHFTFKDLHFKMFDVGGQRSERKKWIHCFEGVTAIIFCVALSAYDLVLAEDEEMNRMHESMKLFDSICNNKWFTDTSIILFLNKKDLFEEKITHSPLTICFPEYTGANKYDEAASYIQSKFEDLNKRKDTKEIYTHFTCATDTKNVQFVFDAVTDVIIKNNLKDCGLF
Method: A and B, the carboxyl region of AGS3 (Pro^463-Ser^650) containing all four GPR repeats was generated as a His-tagged (A) or GST fusion (B) protein for protein interaction assays as described under Examples. All interactions were done in the presence of 10 μM GDP, and the input lanes represent one-tenth of the G-protein used in each interaction assay. A, Giα1 (75 nM) was incubated with 300 nM His-tagged AGS3-GPR in the absence and presence of increasing amounts of the GPR peptide, after which bound Giα was isolated on a nickel affinity matrix, and samples were processed for immunoblotting with Giα antisera. The blot in the upper panel of A was stripped and reprobed with AGS3 antisera to provide internal controls for protein loading. B, Giα2 (75 nM) was incubated with 300 nM AGS3-GPR or GST in the presence and absence of 100 μM GPR consensus peptide, GPR peptide Q15A, or GPR peptide R23F. The immunoblots presented in A and B are representative of three experiments. C and D, GTPγ^35S binding to G-proteins (100 nM) was measured in the absence and presence of peptides as described in the Examples. Data are expressed as the percent of specific binding (˜5 pmol) observed in the absence of peptide and represent the means±S.E. derived from three experiments. The concentration of peptides in D is 10 μM.
GTPγS Binding Assays—GTPγS binding assays were generally conducted as described (39). G-proteins (100 nM) were preincubated for 20 min at 24° C. in the presence and absence of GPR peptides. Binding assays (duplicate determinations) were initiated by addition of 0.5 μM GTPγS (4.0×10^4 dpm/pmol), and incubations (total volume=50 μl) were continued for 30 min at 24° C. Both preincubations and GTPγS binding assays were conducted in binding buffer containing 2 mM MgCl2. Reactions were terminated by rapid filtration through nitrocellulose filters with 4×4-ml washes of stop buffer (50 mM Tris-HCl, 5 mM MgCl2, 1 mM EDTA, pH 7.4, at 4° C.). Radioactivity bound to the filters was determined by liquid scintillation counting. Nonspecific binding was defined by 100 μM […].

Row | Molecule | activity in yeast strains expressing different Gα subunits [1] | effect on GTPγ35S binding to Giα2 (Giα2)
1 | AGS2: Activator of G-protein Signalling 2, protein identical to mouse Tctex1, isolated from NG108-15 cDNA library | active in each of the genetic backgrounds except Gpa1 | did not alter
2 | B1 | only active in the Giα2 and Giα3 genetic backgrounds | did not alter
